Results from PMC9490328, “Characterization and structure of the human lysine-2-oxoglutarate reductase domain, a novel therapeutic target for treatment of glutaric aciduria type 1” (Open Biology, 2022).

Key:
[1] = target: T1, 2-aminoadipic semialdehyde synthase (AASS), lysine-2-oxoglutarate reductase (LOR) domain (Homo sapiens, UniProt Q9UDR5); assay: spectrophotometric LOR enzyme assay ([…] nm, NADPH consumption); format: biochemical
T1 construct: recombinant LOR domain (amino acids 21-470)
T1 sequence (Q9UDR5 21-470): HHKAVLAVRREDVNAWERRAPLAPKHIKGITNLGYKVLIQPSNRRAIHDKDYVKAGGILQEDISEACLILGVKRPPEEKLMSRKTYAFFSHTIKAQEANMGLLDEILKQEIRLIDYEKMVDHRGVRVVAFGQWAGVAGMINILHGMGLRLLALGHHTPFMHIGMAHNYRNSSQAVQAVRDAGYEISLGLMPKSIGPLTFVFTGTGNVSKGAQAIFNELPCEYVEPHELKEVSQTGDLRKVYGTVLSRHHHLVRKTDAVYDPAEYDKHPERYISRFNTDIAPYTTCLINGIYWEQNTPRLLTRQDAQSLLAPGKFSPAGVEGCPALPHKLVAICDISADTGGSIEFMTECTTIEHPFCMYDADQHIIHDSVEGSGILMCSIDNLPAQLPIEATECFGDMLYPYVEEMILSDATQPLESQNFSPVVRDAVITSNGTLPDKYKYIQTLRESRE

[2] = target: T2, 2-aminoadipic semialdehyde synthase (AASS), lysine-2-oxoglutarate reductase (LOR) domain (Homo sapiens, UniProt Q9UDR5); assay: X-ray crystal structure of NEM-alkylated LOR; also activation in enzyme assay and immunoblot with anti-NEM antibody; format: binding
T2 construct: LOR short construct (amino acids 21-451)
T2 sequence (Q9UDR5 21-451): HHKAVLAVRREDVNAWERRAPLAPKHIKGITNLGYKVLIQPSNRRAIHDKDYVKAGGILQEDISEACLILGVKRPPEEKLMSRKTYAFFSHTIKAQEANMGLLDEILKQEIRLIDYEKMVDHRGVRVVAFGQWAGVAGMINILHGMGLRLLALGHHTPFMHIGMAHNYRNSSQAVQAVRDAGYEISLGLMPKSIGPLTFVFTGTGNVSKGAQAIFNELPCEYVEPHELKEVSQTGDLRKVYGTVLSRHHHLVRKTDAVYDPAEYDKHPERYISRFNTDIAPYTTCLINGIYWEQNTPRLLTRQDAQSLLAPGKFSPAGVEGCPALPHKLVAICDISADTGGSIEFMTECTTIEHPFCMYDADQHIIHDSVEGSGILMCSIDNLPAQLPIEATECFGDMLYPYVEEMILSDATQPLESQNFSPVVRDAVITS

[3] = substrate: N[C@@H](CCCCN[C@@H](CCC(=O)O)C(=O)O)C(=O)O; assay: steady-state kinetics, reverse reaction (Km); also inhibits the forward LOR reaction in AASS-Myc-DDK lysates; format: biochemical, Homo sapiens; details: NADP+ consistent with its ability to compete with lysine and 2-oxoglutarate; pH 8.8
purified protein [4] = substrate: NC(=O)c1ccc[n+]([C@@H]2O[C@H](COP(=O)(O)OP(=O)(O)OC[C@H]3O[C@@H](n4cnc5c(N)ncnc54)[C@H](OP(=O)(O)O)[C@@H]3O)[C@@H](O)[C@H]2O)c1; assay: purified protein; details: pH 8.8; varied: cofactor
purified protein [5] = substrate: O=C(O)CCC(=O)C(=O)O; assay: purified protein; details: NADPH; pH 8.8
purified protein [6] = substrate: NC(=O)C1=CN([C@@H]2O[C@H](COP(=O)(O)OP(=O)(O)OC[C@H]3O[C@@H](n4cnc5c(N)ncnc54)[C@H](OP(=O)(O)O)[C@@H]3O)[C@@H](O)[C@H]2O)C=CC1; assay: purified protein; details: predicted: Ser […] and Arg […] interact with the additional phosphate of NADPH; pH 8.8; varied: cofactor
[7] = substrate: NCCCC[C@H](N)C(=O)O; assay: steady-state kinetics, forward reaction (Km); format: biochemical, Homo sapiens; details: NADPH; pH 8.8

In the case of `NC[C@@H]1CCCN1C(=O)c1ccc2c(c1)CCC(=O)N2` [S-105], the IC50 [1] is reported as 142 µM.

For `CCN1C(=O)C=CC1=O` [NEM, N-ethylmaleimide], the “X-ray crystal structure of NEM-alkylated LOR; also activation in enzyme assay an” value [2] was “crystal structure of NEM-alkylated LOR short construct (PDB 8E8V)”.

B1: 2-aminoadipic semialdehyde synthase (AASS), lysine-2-oxoglutarate reductase (LOR) domain (Homo sapiens) (protein)
chain: HHKAVLAVRREDVNAWERRAPLAPKHIKGITNLGYKVLIQPSNRRAIHDKDYVKAGGILQEDISEACLILGVKRPPEEKLMSRKTYAFFSHTIKAQEANMGLLDEILKQEIRLIDYEKMVDHRGVRVVAFGQWAGVAGMINILHGMGLRLLALGHHTPFMHIGMAHNYRNSSQAVQAVRDAGYEISLGLMPKSIGPLTFVFTGTGNVSKGAQAIFNELPCEYVEPHELKEVSQTGDLRKVYGTVLSRHHHLVRKTDAVYDPAEYDKHPERYISRFNTDIAPYTTCLINGIYWEQNTPRLLTRQDAQSLLAPGKFSPAGVEGCPALPHKLVAICDISADTGGSIEFMTECTTIEHPFCMYDADQHIIHDSVEGSGILMCSIDNLPAQLPIEATECFGDMLYPYVEEMILSDATQPLESQNFSPVVRDAVITSNGTLPDKYKYIQTLRESRE
notes: isolated LOR (amino acids 21-470)
In the case of B1, the Km [3] is reported as 1700 ± 100 µM, the Vmax [3] is reported as 443 µmol/min/mg and the Km (purified protein [4]) is reported as 420 ± 10 µM. The Vmax (purified protein [4]) was 525 µmol/min/mg, the Km (purified protein [5]) was 1400 ± 100 µM and the Vmax (purified protein [5]) was 57.2 µmol/min/mg. The Km (purified protein [6]) was 390 ± 20 µM, the Vmax (purified protein [6]) was 65.4 µmol/min/mg and the Km [7] was 24000 ± 2000 µM. The Vmax [7] was 28.8 µmol/min/mg.
